Source: patent US20030032045

Target: in vitro translated, 35S-labeled PARP (full length human poly(ADP-ribose) polymerase), P09874
Sequence (P09874 whole entry, looked up): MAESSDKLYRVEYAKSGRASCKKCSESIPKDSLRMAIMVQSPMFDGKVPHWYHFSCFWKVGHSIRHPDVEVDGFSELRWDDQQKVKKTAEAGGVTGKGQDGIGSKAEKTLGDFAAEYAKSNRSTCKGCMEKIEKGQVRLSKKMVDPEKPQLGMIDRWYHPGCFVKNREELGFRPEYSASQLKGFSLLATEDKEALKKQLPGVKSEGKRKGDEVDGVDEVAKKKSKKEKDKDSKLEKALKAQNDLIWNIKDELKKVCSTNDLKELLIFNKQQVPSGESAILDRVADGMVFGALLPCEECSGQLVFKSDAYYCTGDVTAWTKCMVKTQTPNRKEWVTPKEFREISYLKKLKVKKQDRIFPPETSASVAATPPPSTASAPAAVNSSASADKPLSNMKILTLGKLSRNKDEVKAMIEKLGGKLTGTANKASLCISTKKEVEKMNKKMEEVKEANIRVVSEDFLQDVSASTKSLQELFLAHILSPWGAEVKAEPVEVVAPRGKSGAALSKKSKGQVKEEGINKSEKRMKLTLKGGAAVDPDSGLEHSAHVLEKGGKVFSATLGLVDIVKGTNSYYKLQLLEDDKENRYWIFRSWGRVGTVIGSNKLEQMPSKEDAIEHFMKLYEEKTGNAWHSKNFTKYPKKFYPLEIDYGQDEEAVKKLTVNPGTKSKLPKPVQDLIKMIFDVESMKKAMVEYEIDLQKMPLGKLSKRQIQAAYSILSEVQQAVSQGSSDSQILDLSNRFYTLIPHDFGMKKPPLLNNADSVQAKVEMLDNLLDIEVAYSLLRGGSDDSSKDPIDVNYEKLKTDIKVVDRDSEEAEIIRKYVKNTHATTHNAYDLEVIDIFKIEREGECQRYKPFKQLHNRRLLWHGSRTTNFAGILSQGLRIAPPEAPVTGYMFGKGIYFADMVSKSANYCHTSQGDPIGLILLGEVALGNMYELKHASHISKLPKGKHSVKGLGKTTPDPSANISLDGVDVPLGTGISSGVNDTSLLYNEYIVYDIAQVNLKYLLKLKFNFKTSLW

B1: CPP32 (endogenous, in HeLa cell S-100) (protein)
chain: MENTENSVDSKSIKNLEPKIIHGSESMDSGISLDNSYKMDYPEMGLCIIINNKNFHKSTGMTSRSGTDVDAANLRETFRNLKYEVRNKNDLTREEIVELMRDVSKEDHSKRSSFVCVLLSHGEEGIIFGTNGPVDLKKITNFFRGDRCRSLTGKPKLFIIQACRGTELDCGIETDSGVDDDMACHKIPVEADFLYAYSTAPGYYSWRNSKDGSWFIQSLCAMLKQYADKLEFMHILTRVNRKVATEFESFSFDATFHAKKQIPCIVSMLTKELYFYH
For B1, the “cleavage of 35S-labeled PARP (SDS-PAGE, autoradiography)” value was “The activated extracts readily cleaved PARP into 85 kDa and 24 kDa fragments”.
